# Patent US10912839B2, “Methods of treating cancer using compounds containing a vascular disrupting agent” (priority 2008, dated 2021)
# Non-standard residues stand in square brackets, D forms with d. Residues, ends and D or L forms follow the SMILES beside them. No end group written: not given here. *: point of attachment. NH(Colchicin-10-yl) = COc1cc2c(c(OC)c1OC)-c1ccc(N*)c(=O)cc1[C@@H](NC(C)=O)CC2; FITC = O=C1OC2(c3ccc(O)cc3Oc3cc(O)ccc32)c2ccc(NC(=S)*)cc21; hPhe = N[C@@H](CCc1ccccc1)C(=O)O; Cit = NC(=O)NCCC[C@H](N)C(=O)O; βAla = NCCC(=O)O
# Columns and labels:
# [1] = Ex vivo prodrug stability in normal mouse liver homogenate (LC/MS/MS); type: in vitro ADME; settings: for half-life: mouse, tissue homogenate, murine liver homogenate, mean of four independent experiments, read-out: Liver t½; for stability in liver homogenate: normal mouse liver homogenate ex vivo
# Text: (§1) Liver was representative of all normal tissues analysed. (FIG. 5) • d.
# (§2) Half lives are the mean taken from four independent experiments. Liver represent murine liver homogenate and tumour represents HT1080
# [2] = Ex vivo prodrug metabolism in HT1080 tumour homogenate (LC/MS/MS); type: in vitro ADME, human; settings: for half-life: human, tissue homogenate, HT1080 tumour homogenate, mean of four independent experiments, read-out: Tumour t½
# Text: as §1, §2
# [3] = Tissue levels of prodrug and VDA2 after intraperitoneal dosing of HT1080 tumour-bearing mice; type: in vivo; settings: for VDA2 levels in tumour following prodrug administration: HT1080 tumour; for prodrug accumulation in tissues / site of highest prodrug levels: HT1080 tumour-bearing mice
# Text: as §1
# [4] = Off-target toxicity by mouse body weight in antitumour study; type: in vivo, Balb/C mice
# Procedure: (§3) ICT-2552 and ICT-2588 (‘prodrug’) were administered as a single dose via the intraperitoneal route to Balb/C mice bearing subcutaneous HT1080 xenografts. Each of the nine dosing groups comprised 8 mice. The anti-tumour effects of the compounds were assessed by determination of tumour volume and the existence of off-target toxicity was ascertained via monitoring mouse body weight.
# (§4) The dosing groups evaluated ICT-2588 (prodrug) relative to the molar equivalent dose of ICT-2552 (warhead), and were: • 10% DMSO/oil (solvent control) • ICT-2588 at 37.5 mg/kg; 50.0 mg/kg; 62.5 mg/kg; 75.0 mg/kg • ICT-2552 at 7.5 mg/kg; 10.0 mg/kg; 12.5 mg/kg; 15 mg/kg Results
# The weight of all mice was within the tolerated loss of 15% of bodyweight, therefore the compounds are not classified as toxic to the whole body system.
# [5] = Ex vivo prodrug stability in normal mouse plasma (LC/MS/MS); settings: for stability in plasma: normal mouse plasma ex vivo; for stability in plasma and/or liver: alternative endcaps on MT-MMP prodrug
# Text: Prodrug cleavage and metabolism were detected using LC/MS/MS. • a.
# HT1080 xenografts = assay: Dose response antitumour study, subcutaneous HT1080 xenografts; type: in vivo, Balb/C mice; settings: for Growth delay: vs control
# Procedure: as §3, §4
# [6] = ICT-2552 10.0 mg/kg single i.p.
# [7] = ICT-2552 12.5 mg/kg single i.p.
# [8] = ICT-2552 15.0 mg/kg single i.p.
compound,measurement,setting,value
COc1cc2c(c(OC)c1OC)-c1ccc(NC(=O)[C@H](Cc3ccc(O)cc3)NC(=O)[C@H](CC(C)C)NC(=O)[C@@H]3CCCN3C(=O)[C@H](CCc3ccccc3)NC(=O)CNC(=O)[C@H](CCCNC(N)=O)NC(=O)[C@H](CO)NC(=O)[C@H](CCCNC(=N)N)NC(=O)CCNC(=S)Nc3ccc4c(c3)C(=O)OC43c4ccc(O)cc4Oc4cc(O)ccc43)c(=O)cc1[C@@H](NC(C)=O)CC2 [ICT3097] ({FITC-βAla}-RS[Cit]G[hPhe]PLY-{NH(Colchicin-10-yl)}),half-life,[1],110 min
same,half-life,[2],24 min
COc1cc2c(c(OC)c1OC)-c1ccc(NC(=O)[C@H](Cc3ccc(O)cc3)NC(=O)[C@H](CC(C)C)NC(=O)[C@H](Cc3ccc(O)cc3)NC(=O)[C@H](CCc3ccccc3)NC(=O)CNC(=O)[C@H](CCCNC(N)=O)NC(=O)[C@H](CO)NC(=O)[C@H](CCCNC(=N)N)NC(=O)CCNC(=S)Nc3ccc4c(c3)C(=O)OC43c4ccc(O)cc4Oc4cc(O)ccc43)c(=O)cc1[C@@H](NC(C)=O)CC2 [ICT-2588] ({FITC-βAla}-RS[Cit]G[hPhe]YLY-{NH(Colchicin-10-yl)}),half-life,[1],149 min
same,stability in liver homogenate,[1],remained stable
same,"metabolism in tumour homogenate, high versus low MT-MMP",[2]; HT1080 (high MT-MMP) relative to MCF7 (low MT-MMP) homogenate,metabolised rapidly
same,half-life,[2],33 min
same,VDA2 levels in tumour following prodrug administration,[3],High concentrations
same,prodrug accumulation in tissues,[3],accumulated and was detected in all tissues analysed
same,site of highest prodrug levels,[3],Highest prodrug-2 levels were observed in the tumour
same,VDA2 in plasma following prodrug administration,[3]; plasma,undetectable
same,VDA2 level in tumour relative to normal tissues,[3]; tumour vs normal tissues,10 times higher
same,levels of prodrug-2 and VDA2 in tumour 48 hours post administration,"[3]; tumour, 48 hours",still detectable
same,Maximum % weight loss,[4]; ICT-2588 37.5 mg/kg,3 (3) %
same,day of maximum weight loss,[4]; ICT-2588 37.5 mg/kg,3 (3) day
same,Maximum % weight loss,[4]; ICT-2588 50.0 mg/kg,5%
same,day of maximum weight loss,[4]; ICT-2588 50.0 mg/kg,3 days
same,Maximum % weight loss,[4]; ICT-2588 62.5 mg/kg,4%
same,day of maximum weight loss,[4]; ICT-2588 62.5 mg/kg,3 days
same,Maximum % weight loss,[4]; ICT-2588 75.0 mg/kg,5%
same,day of maximum weight loss,[4]; ICT-2588 75.0 mg/kg,3 days
same,stability in plasma,[5],remained intact
COc1cc2c(c(OC)c1OC)-c1ccc(NC(=O)[C@H](Cc3ccc(O)cc3)NC(=O)[C@H](CC(C)C)NC(=O)[C@H](Cc3ccc(O)cc3)NC(=O)[C@H](CCc3ccccc3)NC(=O)CNC(=O)[C@H](CCCNC(N)=O)NC(=O)[C@H](CO)NC(=O)[C@H](CCCNC(=N)N)NC(=O)[C@@H](CO)NC(=O)[C@@H](CO)NC(=O)[C@H](N)CO)c(=O)cc1[C@@H](NC(C)=O)CC2 [3×D-Serine] (H-[dS][dS][dS]RS[Cit]G[hPhe]YLY-{NH(Colchicin-10-yl)}),stability in plasma and/or liver,[5],insufficiently stable
COc1cc2c(c(OC)c1OC)-c1ccc(NC(=O)[C@H](Cc3ccc(O)cc3)NC(=O)[C@H](CC(C)C)NC(=O)[C@H](CO)NC(=O)[C@H](CCc3ccccc3)NC(=O)CNC(=O)[C@H](CCCNC(N)=O)NC(=O)[C@H](CO)NC(=O)[C@H](CCCNC(=N)N)NC(=O)CCNC(=S)Nc3ccc4c(c3)C(=O)OC43c4ccc(O)cc4Oc4cc(O)ccc43)c(=O)cc1[C@@H](NC(C)=O)CC2 [ICT3054] ({FITC-βAla}-RS[Cit]G[hPhe]SLY-{NH(Colchicin-10-yl)}),half-life,[1],66 min
same,half-life,[2],9 min
COc1cc2c(c(OC)c1OC)-c1ccc(NC(=O)[C@H](Cc3ccc(O)cc3)NC(=O)[C@H](CC(C)C)NC(=O)[C@H](CC(N)=O)NC(=O)[C@H](CCc3ccccc3)NC(=O)CNC(=O)[C@H](CCCNC(N)=O)NC(=O)[C@H](CO)NC(=O)[C@H](CCCNC(=N)N)NC(=O)CCNC(=S)Nc3ccc4c(c3)C(=O)OC43c4ccc(O)cc4Oc4cc(O)ccc43)c(=O)cc1[C@@H](NC(C)=O)CC2 [ICT3078] ({FITC-βAla}-RS[Cit]G[hPhe]NLY-{NH(Colchicin-10-yl)}),half-life,[1],76 min
same,half-life,[2],11 min
COc1cc2c(c(OC)c1OC)-c1ccc(NC(=O)[C@H](Cc3ccc(O)cc3)NC(=O)[C@H](CC(C)C)NC(=O)[C@H](Cc3ccc(O)cc3)NC(=O)[C@H](CCc3ccccc3)NC(=O)CNC(=O)[C@H](CCCNC(N)=O)NC(=O)[C@@H]3CCCN3C(=O)[C@H](CCC(=O)O)NC(=O)CCNC(=S)Nc3ccc4c(c3)C(=O)OC43c4ccc(O)cc4Oc4cc(O)ccc43)c(=O)cc1[C@@H](NC(C)=O)CC2 [Prodrug-1] ({FITC-βAla}-EP[Cit]G[hPhe]YLY-{NH(Colchicin-10-yl)}),stability in liver homogenate,[1],stable
same,metabolism in tumour homogenate,[2]; HT1080 xenograft homogenate ex vivo,metabolised
same,prodrug level after 24 hours post-dosing,[3]; 24 hours,not detectable
same,VDA2 levels in tumour following prodrug administration,[3],detected at high levels
same,prodrug accumulation in tissues,[3],accumulated and was detected in all tissues analysed
same,site of highest prodrug levels,[3],Highest prodrug-1 levels were observed in the tumour
same,VDA2 levels in normal tissues following prodrug administration,[3]; normal tissues,detectable at low levels
same,VDA2 in normal tissues after 24 hours post-dosing,"[3]; normal tissues, 24 hours",undetectable
same,VDA2 in tumour after 24 hours post-dosing,"[3]; tumour, 24 hours",still detectable at high levels
same,stability in plasma,[5],stable
COc1cc2c(c(OC)c1OC)-c1ccc(NC(=O)[C@H](Cc3ccc(O)cc3)NC(=O)[C@H](CC(C)C)NC(=O)[C@H](C)NC(=O)[C@H](CCc3ccccc3)NC(=O)CNC(=O)[C@H](CCCNC(N)=O)NC(=O)[C@H](CO)NC(=O)[C@H](CCCNC(=N)N)NC(=O)CCNC(=S)Nc3ccc4c(c3)C(=O)OC43c4ccc(O)cc4Oc4cc(O)ccc43)c(=O)cc1[C@@H](NC(C)=O)CC2 [ICT3053] ({FITC-βAla}-RS[Cit]G[hPhe]ALY-{NH(Colchicin-10-yl)}),half-life,[1],76 min
same,half-life,[2],17 min
COc1cc2c(c(OC)c1OC)-c1ccc(NC(=O)[C@H](Cc3ccc(O)cc3)NC(=O)[C@H](CC(C)C)NC(=O)[C@H](CC(C)C)NC(=O)[C@H](CCc3ccccc3)NC(=O)CNC(=O)[C@H](CCCNC(N)=O)NC(=O)[C@H](CO)NC(=O)[C@H](CCCNC(=N)N)NC(=O)CCNC(=S)Nc3ccc4c(c3)C(=O)OC43c4ccc(O)cc4Oc4cc(O)ccc43)c(=O)cc1[C@@H](NC(C)=O)CC2 [ICT3080] ({FITC-βAla}-RS[Cit]G[hPhe]LLY-{NH(Colchicin-10-yl)}),half-life,[1],134 min
same,half-life,[2],48 min
COc1cc2c(c(OC)c1OC)-c1ccc(NC(=O)[C@H](Cc3ccc(O)cc3)NC(=O)[C@H](CC(C)C)NC(=O)[C@H](CC(=O)O)NC(=O)[C@H](CCc3ccccc3)NC(=O)CNC(=O)[C@H](CCCNC(N)=O)NC(=O)[C@H](CO)NC(=O)[C@H](CCCNC(=N)N)NC(=O)CCNC(=S)Nc3ccc4c(c3)C(=O)OC43c4ccc(O)cc4Oc4cc(O)ccc43)c(=O)cc1[C@@H](NC(C)=O)CC2 [ICT3055] ({FITC-βAla}-RS[Cit]G[hPhe]DLY-{NH(Colchicin-10-yl)}),half-life,[1],67 min
same,half-life,[2],7 min
"Quinic acid+2×D-Serine: conjugate based on MT-MMP prodrug (SEQ ID NO: 4) with quinic acid+2×D-Serine endcap (RS[Cit]G[hPhe]YLY; not fully specified (N-terminus); also: quinic acid + 2×D-Ser endcap, end not given here)",stability in plasma and/or liver,[5],insufficiently stable
"COc1cc2c(c(OC)c1OC)-c1ccc(N)c(=O)cc1[C@@H](NC(C)=O)CC2 [ICT-2552, azademethylcolchicine]",Mean time to RTV2,HT1080 xenografts; ICT-2552 7.5 mg/kg single i.p.,4.0 days
same,Median time RTV2,HT1080 xenografts; ICT-2552 7.5 mg/kg single i.p.,3.8 days
same,Growth delay,HT1080 xenografts; ICT-2552 7.5 mg/kg single i.p.,1.6 days
same,Mean time to RTV2,HT1080 xenografts; [6],4.4 days
same,Median time RTV2,HT1080 xenografts; [6],4.2 days
same,Growth delay,HT1080 xenografts; [6],2.0 days
same,Mean time to RTV2,HT1080 xenografts; [7],4.5 days
same,Median time RTV2,HT1080 xenografts; [7],4.7 days
same,Growth delay,HT1080 xenografts; [7],2.5 days
same,Mean time to RTV2,HT1080 xenografts; [8],4.1 days
same,Median time RTV2,HT1080 xenografts; [8],4.1 days
same,Growth delay,HT1080 xenografts; [8],1.9 days
same,delay in tumour growth,HT1080 xenografts; all evaluated doses,significant delay in tumour growth
same,tumour response,HT1080 xenografts; all tested dose levels,Tumour responses were observed
same,Maximum % weight loss,[4]; ICT-2552 7.5 mg/kg,3%
same,day of maximum weight loss,[4]; ICT-2552 7.5 mg/kg,4 days
same,Maximum % weight loss,[4]; ICT-2552 10.0 mg/kg,6 (6) %
same,day of maximum weight loss,[4]; ICT-2552 10.0 mg/kg,6 (6) day
same,Maximum % weight loss,[4]; ICT-2552 12.5 mg/kg,6%
same,day of maximum weight loss,[4]; ICT-2552 12.5 mg/kg,1 days
same,Maximum % weight loss,[4]; ICT-2552 15.0 mg/kg,5%
same,day of maximum weight loss,[4]; ICT-2552 15.0 mg/kg,1 days
